Experimental data as given in patent US20110059015A1 (CONSEJO SUPERIOR DE INVESTIGACIONES CIENTIFICAS CSIC, published 2011).
Positions count from the first letter of the chain named. Names may count otherwise.

Key:
[1] = molecular target: gp120 of HIV-1 MN strain (on virus) (HIV-1 (MN), UniProt P05877 32-513); test: cell-based or functional assay
BSA [2] = molecular target: T1, BSA (Bos taurus, UniProt P02769); test: ELISA, soluble Fab on BSA coated wells
T1 construct: commercial serum albumin; also called bovine serum albumin

[3] = molecular target: gp120 of HIV-1 SF-2 strain (on virus) (HIV-1 (SF-2), UniProt P03378 32-509); test: cell-based or functional assay
[4] = molecular target: gp120 of HIV-1 RF strain (on virus) (HIV-1 (RF), UniProt P04579 32-519); test: cell-based or functional assay
BSA [5] = molecular target: T1, BSA; test: ELISA, soluble Fab on BSA coated wells; remark: listed apart in the source
BSA [6] = molecular target: T1, BSA; test: ELISA, soluble mutant Fab on BSA coated wells
BSA [7] = molecular target: T1, BSA; test: ELISA, Fab titration on BSA coated wells
BSA [8] = molecular target: T1, BSA; test: ELISA, soluble mutant Fab on BSA coated wells; remark: listed apart in the source
BSA [9] = molecular target: T1, BSA; test: ELISA, soluble Fab of the shuffled HC/LC pair on BSA coated wells

T1 sequence (P02769 25-607 limits assumed): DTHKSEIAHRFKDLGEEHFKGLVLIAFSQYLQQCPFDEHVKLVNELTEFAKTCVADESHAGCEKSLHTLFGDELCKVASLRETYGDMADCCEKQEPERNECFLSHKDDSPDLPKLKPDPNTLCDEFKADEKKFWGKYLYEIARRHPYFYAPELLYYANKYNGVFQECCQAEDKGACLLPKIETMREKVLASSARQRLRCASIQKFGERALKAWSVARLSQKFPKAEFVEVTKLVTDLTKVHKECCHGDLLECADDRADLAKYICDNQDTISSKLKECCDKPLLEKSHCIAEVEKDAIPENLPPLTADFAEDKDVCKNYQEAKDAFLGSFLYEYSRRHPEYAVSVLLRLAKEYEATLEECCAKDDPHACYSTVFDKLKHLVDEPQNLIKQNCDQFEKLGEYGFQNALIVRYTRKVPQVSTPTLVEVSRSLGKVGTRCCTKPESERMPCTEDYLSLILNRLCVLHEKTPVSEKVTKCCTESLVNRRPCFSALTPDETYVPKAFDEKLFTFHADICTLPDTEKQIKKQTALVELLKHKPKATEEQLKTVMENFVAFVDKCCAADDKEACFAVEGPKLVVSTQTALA

B1: Fab S20 (Fab, V domains shown)
VH: LESGGGVVQPGRSLRLSCSASGFSFRDYAMHWVRQAPGKGLEWVAFIWFDGSNERYADSVKGRFTITRDNPKNTLYLQMNSLRVEDTAVYYCVRRGGSILTGFHLDYWGQGTLVTVSS
VL: ELTQSPSSLSASVGDRVTITCRASQGIRDDLGWYQQKPGKAPKRLIYAASNLQSGVPSRFSGGGSGTEFTLTISSLQPEDFATYYCLQHNSYPLTFGGGTKVEIKR
notes: also called IgG Fab S20
[1]
  % neutralisation of HIV-1 MN, NPA in MT-4 cells, at 20 µg/ml Fab: 90%
BSA [2]
  binding result: no binding (tested: not given on the sheet)

B2: Fab S8 (Fab, V domains shown)
VH: B1 VH with V7L, Q9K, R12G, S19A, S24T, R26S, D27S
VL: B1 VL
notes: also called IgG Fab S8; S8 Fab
[3]
  % neutralisation, IRA in MT-2 cells, at 1 µg/ml Fab S8: 50%
  % neutralisation, IRA in MT-2 cells, at 10 µg/ml Fab S8: > 90%
[4]
  % neutralisation, IRA in MT-2 cells, at 1 µg/ml Fab S8: 50%
  % neutralisation, IRA in MT-2 cells, at 10 µg/ml Fab S8: > 90%
[1]
  % neutralisation of HIV-1 MN, NPA in MT-4 cells, at 20 µg/ml Fab: 90%
  % neutralisation, IRA in MT-2 cells, at 1 µg/ml Fab S8: 50%
  % neutralisation, IRA in MT-2 cells, at 10 µg/ml Fab S8: > 90%
BSA [5]
  binding result: no binding (tested: not given on the sheet)

B3: Fab S8 HCDR3 mutant Arg95 to Asp (Fab, V domains shown)
VH: B1 VH with V7L, Q9K, R12G, S19A, S24T, R26S, D27S, R95D
VL: B1 VL
BSA [6]
  binding result: no binding (tested: not given on the sheet)

B4: Fab S8 HCDR3 mutant Arg95 to Gly (Fab, V domains shown)
VH: B1 VH with V7L, Q9K, R12G, S19A, S24T, R26S, D27S, R95G
VL: B1 VL
BSA [6]
  binding result: no binding (tested: not given on the sheet)

B5: Fab S19 (Fab, V domains shown)
VH: B1 VH with S19A, R26S, D27S, Y28H, A29G
VL: B1 VL
notes: also called IgG Fab S19
BSA [7]
  binding result: no binding (tested: about 10 µg/ml)

B6: S2095 P (Fab, V domains shown)
VH: B1 VH with R95P
VL: B1 VL
BSA [8]
  binding result: no binding (tested: not given on the sheet)

B7: mutant Fab S895K (Fab, V domains shown)
VH: B1 VH with V7L, Q9K, R12G, S19A, S24T, R26S, D27S, R95K
VL: B1 VL
BSA [6]
  binding result: no binding (tested: not given on the sheet)

B8: mutant Fab S2095K (Fab, V domains shown)
VH: B1 VH with R95K
VL: B1 VL
BSA [8]
  binding result: no binding (tested: not given on the sheet)

B9: S20/S8 (Fab, V domains shown)
VH: B1 VH
VL: B1 VL
notes: also called S20 heavy chain paired with S8 light chain
BSA [9]
  binding result: no binding (tested: not given on the sheet)
